Assays:
[1] = molecular target: ARVCF peptide PQPVDSWV-COOH (eight-residue motif corresponding to the ARVCF C-terminus); assay: SPR (BIAcore)
[2] = molecular target: δ-catenin peptide PASPDSWV-COOH; assay: SPR (BIAcore)
[3] = molecular target: eSH2-3 (human) (UniProt P62993); assay: competition phage ELISA: eSH2-3 phage pre-incubated with free pY1139 peptide, unbound phage captured
[4] = molecular target: eSH2-6 (human) (UniProt P62993); assay: competition phage ELISA: eSH2-6 phage pre-incubated with free pY1139 peptide, unbound phage captured
[5] = molecular target: eSH2-3 (human) (UniProt P62993); assay: panel B, competition phage ELISA: eSH2-3 phages incubated with free pY1139 peptide (0 to 50 nM), phages not bound to the free peptide captured and detected
[6] = molecular target: eSH2-6 (human) (UniProt P62993); assay: panel C, competition phage ELISA: eSH2-6 phages incubated with free pY1139 peptide (0 to 50 nM), phages not bound to the free peptide captured and detected
[7] = molecular target: SH2 domain of human Grb2 (human) (UniProt P62993); assay: panel D, competition phage ELISA: wtSH2 (Grb2-SH2) phages incubated with free pY1139 peptide (0 to about 2200 nM), phages not bound to the free peptide captured and detected
Chain of SH2 domain of human Grb2 (human) (P62993 56-153 limits assumed): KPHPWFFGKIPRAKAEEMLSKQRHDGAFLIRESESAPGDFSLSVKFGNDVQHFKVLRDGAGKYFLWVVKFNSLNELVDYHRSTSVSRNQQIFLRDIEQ

| Substance | Kd [1] [µM] | Kd [2] [µM] | IC50 [3] [µM] | IC50 [4] [µM] | IC50 [5] [nM] | IC50 [6] [nM] | IC50 [7] [µM] |
| --- | --- | --- | --- | --- | --- | --- | --- |
| PDZ domain of Erbin (wild-type) (from UniProt Q96RT1 1314-1412) | 10 | 10 | – | – | – | – | – |
| pY-containing peptide corresponding to residues 1130-1146 of ErbB2 (HER2) pY1139 | – | – | 90 | 90 | 0.09 | 0.09 | 0.07 |
